7 molecules from US20170240604A1 (Harvard, published 2017) can be followed below.

Experiment [1] concerns the target KRas (G12V)·GppNHp (human) (UniProt P01116). As to the kind of experiment: fluorescence polarization; FITC-labeled peptide at fixed concentration, KRas(G12V) GppNHp titrated 0.5 to 5000 nM; one-site fit with Hill coefficient. For orientation: In fluorescence polarisation assays a small probe gives low polarisation when free and higher when bound to something large.

The target of experiment [2] is K-Ras (mutation and nucleotide state not stated where it is used) (UniProt P01116). In words: fluorescence polarization.
The target of the next experiment is NRas·GppNHp (UniProt P01111). As to the kind of experiment: fluorescence polarization, FITC-225-3 with GppNHp-bound NRas.
Another experiment concerns the target HRas·GppNHp (UniProt P01112 1-177, limits assumed). In words: fluorescence polarization, FITC-225-3 with GppNHp-bound HRas.
In a further experiment the target is T1, RalA (UniProt P11233 1-178, limits assumed).
T1 construct: also called RalA protein
T1 sequence: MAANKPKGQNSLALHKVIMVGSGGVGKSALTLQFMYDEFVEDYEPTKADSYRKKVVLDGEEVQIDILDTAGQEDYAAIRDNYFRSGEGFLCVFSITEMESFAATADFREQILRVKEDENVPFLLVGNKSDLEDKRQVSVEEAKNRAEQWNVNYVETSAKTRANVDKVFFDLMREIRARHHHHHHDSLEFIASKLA
In words: fluorescence polarization; FITC-labeled 225-3 at fixed concentration, protein titrated; one-site specific binding fit with Hill coefficient.

Experiment [3] deals with T2, Rab25 (GppNHp-bound) (UniProt P57735 1-213, limits assumed).
T2 sequence (looked up): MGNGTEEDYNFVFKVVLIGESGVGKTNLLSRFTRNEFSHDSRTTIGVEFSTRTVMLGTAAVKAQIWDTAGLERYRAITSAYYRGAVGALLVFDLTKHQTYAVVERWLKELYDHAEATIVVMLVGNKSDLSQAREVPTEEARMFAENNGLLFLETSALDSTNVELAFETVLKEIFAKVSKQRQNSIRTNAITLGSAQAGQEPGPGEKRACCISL
The description is as above.

Experiment [4] concerns the target T2, Rab25 (GppNHp-bound). In words: fluorescence polarization, FITC-225-3 with GppNHp-bound Rab25; FP, GppNHp-bound Rab25; weak binding given as a number.
The target in another experiment is T3, Rap1a (GppNHp-bound) (UniProt P62834 1-167, limits assumed).
T3 construct: also called Rapla (so in the source)
T3 sequence: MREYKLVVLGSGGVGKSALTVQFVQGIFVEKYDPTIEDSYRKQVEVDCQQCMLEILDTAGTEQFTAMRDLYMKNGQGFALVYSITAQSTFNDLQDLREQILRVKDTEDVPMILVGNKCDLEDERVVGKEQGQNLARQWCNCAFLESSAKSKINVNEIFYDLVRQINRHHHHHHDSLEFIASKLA
In words: fluorescence polarization, FITC-225-3 with GppNHp-bound Rap1a; FP, GppNHp-bound Rap1a.

No end group written: not given here. fluorescein maleimide = fluorescein maleimide (label on cysteine)

B1: 225-3 D11A (peptide)
peptide monomer: GC(fluorescein maleimide)GGPRRPRRPRYPGDAASIEDLHEYWARLWNYLYAVA
With B1, the dissociation constant (Kd) in experiment [1] was determined as 550 nM.

B2: 225-3 H18A (peptide)
peptide monomer: GC(fluorescein maleimide)GGPRRPRRPRYPGDDASIEDLAEYWARLWNYLYAVA
On to B2, for which the dissociation constant (Kd) in experiment [1] was found to be 170 nM. Against the preceding molecule, the Kd is about 3.2-fold lower.

B3: RDA3 (peptide)
peptide: GRRPRRPRCPGDDASIEDLHEYWARLWNYLYAVA
modifications: also: FITC label, site not given here
In experiment [2], B3 displayed a dissociation constant (Kd) of 6 nM.

B4: 225-3 (peptide)
peptide: GCGGPRRPRRPRYPGDDASIEDLHEYWARLWNYLYAVA
modifications: also: Cys2 labelled with fluorescein-maleimide or biotin-PEG2-maleimide, or unlabelled, depending on assay, non-covalent head-to-tail homodimer
notes: Recombinant, TEV-cleaved
For B4, the Kd with NRas·GppNHp was 45 nM; with HRas·GppNHp, 45 nM; with RalA it was > 5000 nM; with Rab25 (GppNHp-bound) [3], > 5000 nM; with Rab25 (GppNHp-bound) [4], ~10000 nM; with Rap1a (GppNHp-bound), 3500 nM.

B5: 225-3 R6A (peptide)
peptide monomer: GC(fluorescein maleimide)GGPRRPRRPAYPGDDASIEDLHEYWARLWNYLYAVA
Molecule B5 showed a Kd in experiment [1] of 340 nM. In other words, the sub-micromolar range.

B6: 225-3 R3A (peptide)
peptide monomer: GC(fluorescein maleimide)GGPRRPARPRYPGDDASIEDLHEYWARLWNYLYAVA
B6 registered a Kd in experiment [1] of 84 nM. This Kd is about 4-fold lower than that of the molecule before.

B7: 225-3 Y29A (peptide)
peptide monomer: GC(fluorescein maleimide)GGPRRPRRPRYPGDDASIEDLHEYWARLWNYLAAVA
B7 returned a Kd in experiment [1] of 200 nM.

Usually Kd stands for the free concentration of one partner at which half of the binding sites on the other are occupied at equilibrium, for simple one-to-one binding. A lower Kd goes with higher affinity.
